# In patent US8278415B2 (Centocor, Inc., dated 2012):
# Biological target: sEGFR-MMB (human)
# Experiment: phage ELISA on coated sEGFR-MMB, chemiluminescence (background typically <200 units)
# Sequence of sEGFR-MMB (human) (chain, as listed by the source limits assumed): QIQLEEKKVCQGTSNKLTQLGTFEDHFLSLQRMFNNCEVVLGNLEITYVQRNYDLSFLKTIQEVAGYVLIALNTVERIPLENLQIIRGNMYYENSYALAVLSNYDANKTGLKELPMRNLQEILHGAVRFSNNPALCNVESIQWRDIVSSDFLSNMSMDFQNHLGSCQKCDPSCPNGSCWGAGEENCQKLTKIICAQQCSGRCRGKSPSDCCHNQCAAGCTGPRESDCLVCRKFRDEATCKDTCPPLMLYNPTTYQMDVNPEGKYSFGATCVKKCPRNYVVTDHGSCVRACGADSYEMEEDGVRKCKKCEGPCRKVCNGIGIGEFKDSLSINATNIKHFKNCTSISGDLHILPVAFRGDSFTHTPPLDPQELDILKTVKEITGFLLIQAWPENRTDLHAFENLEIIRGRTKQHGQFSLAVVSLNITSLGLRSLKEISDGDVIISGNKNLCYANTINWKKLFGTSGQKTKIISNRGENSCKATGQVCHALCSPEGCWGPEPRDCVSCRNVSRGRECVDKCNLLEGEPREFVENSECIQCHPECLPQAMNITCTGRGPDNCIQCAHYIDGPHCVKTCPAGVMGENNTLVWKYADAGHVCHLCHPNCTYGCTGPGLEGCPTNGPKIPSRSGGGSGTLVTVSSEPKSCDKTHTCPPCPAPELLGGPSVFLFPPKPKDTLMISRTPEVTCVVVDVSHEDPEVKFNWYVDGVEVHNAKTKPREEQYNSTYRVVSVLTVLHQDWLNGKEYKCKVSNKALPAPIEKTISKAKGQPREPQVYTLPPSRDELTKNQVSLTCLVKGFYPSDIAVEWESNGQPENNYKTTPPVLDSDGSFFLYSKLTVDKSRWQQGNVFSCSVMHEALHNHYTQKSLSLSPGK
row,Binder,ELISA
1,DACTMVFLWCSL [P177],8660 units
2,SGCLDALWQCVY [P174],34600 units
3,RWCYFWWITICEL [P178],7910 units

# Biological target: sEGFR-MMB (human)
# Experiment: as above
# Remark: another data set of the same source
row,Binder,ELISA
1,YDCVSFGAVAYCPQ [S18 library phage peptide of SEQ ID NO: 34],3200 units
2,AGCIAFVDVVYCAR [S18 library phage peptide of SEQ ID NO: 23],6380 units
3,SDCVLFGSKLFCSA [S18 library phage peptide of SEQ ID NO: 32],35300 units
4,TDCVRFGETIYCIV [S18 library phage peptide of SEQ ID NO: 33],13300 units
5,TDCVIFGLETYCLR [P173],37900 units
6,AKCIAFGNSVYCLN [S18 library phage peptide of SEQ ID NO: 24],31500 units
7,DSCIQFANLLYCAI [S18 library phage peptide of SEQ ID NO: 27],53200 units
8,RDCIIFDKTVYCVI [S18 library phage peptide of SEQ ID NO: 25],17100 units
9,RGCVVFGDNIYCIV [S18 library phage peptide of SEQ ID NO: 35],22000 units
10,TDCIRFGVLWYCLV [S18 library phage peptide of SEQ ID NO: 28],4750 units
11,AYCSFVAGDLVCQV [S18 library phage peptide of SEQ ID NO: 30],19800 units
12,KHCILFEKTVYCAK [S18 library phage peptide of SEQ ID NO: 26],9110 units
13,RACITFGKVVYCEV [S18 library phage peptide of SEQ ID NO: 29],30700 units

# Biological target: sEGFR-MMB (human)
# Experiment: as above
# Remark: another data set of the same source
row,Binder,ELISA
1,ELGLPTLLCWPTDTL [S15 library phage peptide of SEQ ID NO: 11],9380 units
2,PIDDESLPVLYCVTS [S15 library phage peptide of SEQ ID NO: 17],1780 units
3,TVFTLPELVCVVAGT [S15 library phage peptide of SEQ ID NO: 20],1520 units
4,GADTLPDLLCWESSL [S15 library phage peptide of SEQ ID NO: 19],5720 units
5,YRLFVDESIFFCTRL [S15 library phage peptide of SEQ ID NO: 10],3080 units
6,PIFSSLPVLYCTSQL [S15 library phage peptide of SEQ ID NO: 18],1420 units
7,LPDLICAVDSGTSGA [S15 library phage peptide of SEQ ID NO: 21],1160 units
8,STITSLPTLQCWPIL [S15 library phage peptide of SEQ ID NO: 16],13300 units
9,VSGILPILVCHPAAT [S15 library phage peptide of SEQ ID NO: 12],1110 units
10,HVSLQSLPELICVVS [S15 library phage peptide of SEQ ID NO: 14],1360 units
11,NWFSLPTLLCFPLNP [S15 library phage peptide of SEQ ID NO: 15],3670 units
12,LPDDSLPELICKVRG [P175],6790 units

# Biological target: sEGFR-MMB (human)
# Experiment: as above
# Remark: another data set of the same source
row,Binder,ELISA
1,WMCFLEGYGASLMCQC [S20 library phage peptide of SEQ ID NO: 44],4800 units
2,PTCDSATRRVLTICAD [S20 library phage peptide of SEQ ID NO: 43],5420 units
3,YICTPSDIDSWYICYL [S20 library phage peptide of SEQ ID NO: 46],6620 units
4,SVCVGTAFPGWMVCGP [S20 library phage peptide of SEQ ID NO: 47],4770 units
5,KTCVSTTFDLWFVCFA [P176],37400 units
6,DSCCSFLTDGTVVCSL [S20 library phage peptide of SEQ ID NO: 45],9540 units
7,LLCATTSFRDWFVCFT [S20 library phage peptide of SEQ ID NO: 49],4510 units

# Biological target: sEGFR-MMB (human)
# Experiment: as above
# Remark: another data set of the same source
row,Binder,ELISA
1,GPCVLIRDYYLLCLE [P179],14000 units
2,CDCREAVSASLVCRY [S19 library phage peptide of SEQ ID NO: 41],3350 units
3,YDCMIRADGSLICWC [S19 library phage peptide of SEQ ID NO: 38],1290 units
4,MICYLVDSGNIICYK [P180],8810 units
5,AFCRLDFNQWLTCLV [S19 library phage peptide of SEQ ID NO: 40],2580 units
